According to US20160083711:

Tested on: fluorogenic peptide (MCA)Lys-Lys-Pro-Ala-Glu-Phe-Phe-Ala-Leu-Lys(DNP)

Sequence of native cardosin B (chain, as listed by the source): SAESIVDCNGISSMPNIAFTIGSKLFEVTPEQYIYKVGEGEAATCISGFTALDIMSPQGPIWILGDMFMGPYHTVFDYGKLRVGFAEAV

Substance: native cardosin B
- Km: 1.4 µM
- VMax: 6.36e-06 µmol/s
- kcat: 24 s⁻¹
- kcat/Km: 1.71e+07 M⁻¹ s⁻¹
